Drawing on article PMC4882459, this text covers stoichiometry N, koff and kon for one substance.

Test [1] concerns the target ES-62 (Acanthocheilonema viteae). Nature of the test: SEC; HPLC on a G4000SW column in HBSC buffer (1 mM CaCl2); ES-62 injected, with or without CRP at 20 ug/ml in the column buffer, or with EDTA. In general terms: SEC sorts molecules by how far they enter the pores of the column.
In test [2] the target is Biotinylated C-reactive protein (human) (UniProt P02741). Briefly: SPR; Biacore 3000; biotinylated CRP or SAP captured to 200 RU on streptavidin on a CM5 chip; ES-62 flowed at 30 ul/min in HBS pH 7.4 with 1 mM CaCl2 and 0.005% P20; regeneration with 3 mM EDTA; ka and kd calculated separately.
Chain of Biotinylated C-reactive protein (human) (P02741 19-224): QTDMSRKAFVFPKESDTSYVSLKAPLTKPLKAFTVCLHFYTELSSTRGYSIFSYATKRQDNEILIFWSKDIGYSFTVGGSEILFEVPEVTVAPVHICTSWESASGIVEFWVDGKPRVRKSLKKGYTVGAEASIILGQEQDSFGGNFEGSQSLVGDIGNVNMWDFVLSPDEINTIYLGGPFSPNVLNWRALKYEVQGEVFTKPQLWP

Usually stoichiometry N stands for a count of units in the complex or per binding partner. For orientation: koff means the rate constant with which the complex falls apart. Broadly, the kon is the rate constant with which the complex forms. In test [1], ES-62 (natural protein) gave a stoichiometry N of 4. In addition, in test [2], the koff is 0.0013 to 0.0014 s⁻¹ and the kon was 100000 to 1e+06 M⁻¹ s⁻¹.
